We go through four molecules from article PMC11091522.

The chains are these.
T1: rmCD3δε-Fc (CD3 delta/CD3 epsilon heterodimer) (mouse, UniProt P04235;P22646 22-105;22-108)
T1 sequence 1: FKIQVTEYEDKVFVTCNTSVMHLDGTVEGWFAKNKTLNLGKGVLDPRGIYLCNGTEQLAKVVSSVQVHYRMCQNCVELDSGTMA
T1 sequence 2: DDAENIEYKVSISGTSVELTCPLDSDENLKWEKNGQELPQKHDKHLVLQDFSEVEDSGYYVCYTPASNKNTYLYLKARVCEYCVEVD

B1: CD3 Apt3 monomer (XNA)
RNA: GGGAGAGAAGGAUAGGGUCCCUACCUGAAACUCGAAGAUGAGCCCUGUCUGAUUCCUUAUACCUCCUUUCCC
modifications: 2'-fluoro pyrimidines
B2: CD3 Apt12 monomer (XNA)
RNA: GGGAGAGAAGGAUAGGGUCCCCUGUCGAUAUCCACCGUCUGGCCCGCAUUGAUUCCUUAUACCUCCUUUCCC
modifications: 2'-fluoro pyrimidines
B3: CD3 Apt5 monomer (XNA)
RNA: GGGAGAGAAGGAUAGGGCCUUGCCUGCUUUCACGUGUGAUCCCUGCCCGUUUCCUUAUACCUCCUUUCCC
modifications: 2'-fluoro pyrimidines
B4: CD3 Apt1 monomer (XNA)
RNA: GGGAGAGAAGGAUAGGGCCCCGAUUGAUUCGCAAUGUGCGUCCCCUCGUGCCUUCCUUAUACCUCCUUUCCC
modifications: 2'-fluoro pyrimidines

In the data set the target is T1, rmCD3δε-Fc (CD3 delta/CD3 epsilon …). The experiment in a line: filter binding.
As to B1, the binding result is given as “binds”.
The value for B2 was “binds”; that for B3 was “binds”; that for B4 was “binds”.
